In patent CN113461818A (UNIV XUZHOU MEDICAL, dated 2021):

Target: T1, CD276抗原 (UniProt Q5ZPR3 29-466, limits assumed)
T1 construct: also called CD276靶抗原; CD276目的蛋白
T1 sequence (looked up): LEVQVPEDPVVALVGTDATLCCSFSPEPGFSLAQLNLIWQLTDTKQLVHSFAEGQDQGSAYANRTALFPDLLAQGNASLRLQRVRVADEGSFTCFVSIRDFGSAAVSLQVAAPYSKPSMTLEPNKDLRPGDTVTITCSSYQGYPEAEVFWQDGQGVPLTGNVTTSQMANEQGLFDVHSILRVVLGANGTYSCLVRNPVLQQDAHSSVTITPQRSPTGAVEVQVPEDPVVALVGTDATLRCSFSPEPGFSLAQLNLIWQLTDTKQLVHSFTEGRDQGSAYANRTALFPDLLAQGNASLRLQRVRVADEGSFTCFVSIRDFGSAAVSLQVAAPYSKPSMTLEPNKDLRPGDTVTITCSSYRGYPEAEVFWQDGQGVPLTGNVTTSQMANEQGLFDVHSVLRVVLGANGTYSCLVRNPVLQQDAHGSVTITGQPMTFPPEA
Experiment: phage ELISA on coated antigen, TMB, OD450nm

B1: CD276-03 monoclonal phage (clone 03 scFv displayed on phage) (scFv)
scFv: QVQLVQSGGGVVQPGRSLRLSCSASGFTFNSHGMHWVRQAPGKGLEWVGVIWYDGSNAYYADSAKGRFTISRDNSKNSVYLQLNSLGVEDTALYYCAKSDRPHPMGFYYYMDVWGQGTTVTVSSGGGGSGGGGSQSALTQPASVSGSPGQSITISCTGTSSDVGGYNYVSWYQQHPGKAPKLMIYDVSNRPSGVSNRFSGSKSGNTASLTISGLQAEDEADYYCSSYTSSSTLVFGGGTK
notes: The phage coat protein fusion partner is not described; also called 克隆03
binding result: no binding
